Data published in a protein production outcome set (Wang et al. 2014).

Test: label from the status in PepcDB records
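Further: failed if final PepcDB status was selected cloned or expressed and not failed if soluble or beyond.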

Row | Sequence | protein production
1 | AGKQNEVELVAEKQLAFPLDEQTYYLSKSMFQFEENGKEYLHFENTQKSLYDIVIFDIENQQIAKRIPLHKTGPNGLPAVFGSRPSPDSQYILVAQNNISRLSSINSQGEIIRNYNFQTPEGRFTPLSFGSYYNAPAFIKDSCIFLRQEILKPDMKKEDWPRTHMFASQDLRTGEVKWIPIFYPPIFKEEYDNIAGGYGFSYDYNYKESRLVCGFFGYDSLMVTDDLKHIRWYNAKSRYLKSMKPKLGNSMEGINAIIKLNENPRYWHIMYDKYRNVYYRFAEMPYKLAPNESPYETPKGKEFSVIVLNADFEIIGETKFPGKKYFYKMSFVGREGLYISENNLENPQFDENKLVFTCFKIKNASPNK | not failed
2 | AGVSDTAASVCITITAPSKAWNIAGLKCAQIIFSNPSDAEHWQQLSPVIKDGASTLGLIAAEAAYRYGTDFLNQEVAYLKNNHDFLLHEIPKRIPGAKITPMQATYLMWIDFRDTTIEGSPSEFFIEKAKVAMNDGAWFGEDGTGFCRLNFATSREVLEEAIDRMAKAVSHHT | failed
3 | AHKYKRAEVVQNALLELSHIATQVSSLEEFYLGVHHHLKQLISADNFFIATLDVNSGAISVPFFADEKDAHPSQLYPEQSLSTLLQQGLTGYVFRTGQTLLCDESKVDELVNAEEIVNLGSPCHLWLGVPIKHEDIVTAVLVVQTYDTNVSYGDIEVELMTFICHHITGVMERLKHQEQLEQAIQQ | not failed
4 | AHTKISPLGIDTLCFKVSTNPGQPLQPIAKVASGGELSRISLAIQVITAQKVDTPSLIFDEVDVGISGPTAAVVGKMLRTLGESTQVLCVTHLPQVAGCGHNQLFVAKHTKSGKTETQMRALNLEERVEELARLLGGTQITAHTLANAKELLNAA | failed
5 | AIAASALEQFVNNVRQLSAQGQMTQLCELINKSGELLAKNLSHLDTVLGALDIQEHSLGVLAVLFVKFSMPNIPDFETLFSQVQLFISTCNGEHIRYATDTFAGLCHQLTNALVERKQPLRGISILKQAIDKMQMNTNQLTSVHADLCQLCLLAKCFKPAVPFLELDMMDICKENGAYDAKHFLCYYYYGGMIYTGLKNFERALYFFEQAITTPAMAVSHIMLEAYKKYILVSLILHGKVQQLPKYTSQIVGRFIKPLSNAYHELAQIYATNNPAELRALVNKHSETFTRDNNSGLVKQCLSSLYKKNIQRLTKTFLTLSLQDMASRVQLSGPQEAEKYVLHMIEDGEIYASINQKDGMVCFHDNPEKYNNPAMLHKIDQEML | not failed
6 | AIAASLSDQSGSIGSEQTRPSGAIPVESLPPQALEQLIASLQQEVEQLADALQQLNFANQRWTLCKQSIEAFAEETTRVDLPGAQSRATDAISSTASAKPETSVEVNQNQRLLVPLSRSLYVLGRVINPERCLIDIGTGYHVERKLADAAEFFDRRLKHVRGSMRQLTLKIDQNQQQMQTIREILVRKLAGAQQAAEHT | failed
7 | AIAEALWTNKIEDPLSLMSFTVPPLRLLSAAMWQVTERRQVKHYGMLEEFVSLVTETIPELLNQHQRAQLILGLRARHLLELCRGKHQGSLKEIQPHLKRLCRPRVNKEFADEDMEESEACFLDLVRTLISNPKEKEHYFQNIFPEEYGPKFDKNLHALMEDFLLKLDRMVSVPDLSETVSWLRTCPSLLDDCIDSVSVPKDMKSLLEHHTAKGNLQDSEGNNCTFSSQSLPPLVQVVISSDHTESGEPSDLNGQDNDDEQASKTSSDGWTIKKIKLKTETEEEDNDQNWPITEAKSTGTRDGYDDGCLGEEPNQTQS | failed
8 | AIAPDSLYDSLECLSEKIEAEGLYTTFSSDKLVRRIKRSSETEKIILSRFLRARRFNVDSAFDSFLACLKFREAENVNSVGLDEFKNPLATFPFTTTGFCTFDGEPLLYGRASALDRFKIDPAIFHRGFISFLEFLGDTFEPSTMFVIIFDFTDFSPIRNVHFGCARDMLKVMQDFYPERLSKIFLVNYPSTLYGVYKIVSPFIDENTRSKLEWIPKNSLEQLLRYVSMEAIPYSIGGMAVYPVPPLSSQ | failed
9 | AIAREWKSQDAWKQHSLRLCFGVWPGTEFLHRPRAVHRRSGVVCSQMQTEDSHPETPQVPKESLQEEKDSSPATDASFIQSQDGKTVFLDRRTERRIQRGFVLTERGPRSIWKPAGTSSQRNERVPRRAAARGGAGPPDTTPQLATVRVLVLGANHVAQRLAELLSSHSRVCGCYFVSETTDEAAIESMKKYAYALPLRSALNDDEVVRVAEWVLADYVFLVPTGETHDDGVSLKDKERLERTLAQNRVTFMDENLTGLLLENPSLIDALFRARDSLEA | failed
10 | AIARGHGTYMDEDRLTASVAGQVERVNKLICVKPLKTRYNGEVGDVVVGRITEVQQKRWKVETNSRLDSVLLLSAVNLPGGELRRRSTQDELAMRDYLQEGDLISAEVQSIFSDGALSLHTRSLKYGKLGQGVLVYVSPSLVKRQKTHFHNLPCGASLILGNNGYVWLSPTPALQEEQAGGFYTSMEPVSLSDREVVSRLRNCLLALANQKVLLFDTSVLYCYEASLQHQIKDILKPEIMEEIVLETRQRLMEHEG | not failed
11 | AIASEVSCKKRDDYLEWPEYFMAVAFLSAQRSKDPNSQVGACIVNSENKIVGIGYNGMPNGCSDDVLPWRRTAENKLDTKYPYVCHAELNAIMNKNLTDVKGCSMYVALFPCNECAKLIIQAGIKEVIFMSDKYHDSDEATAARLLFNMAGVTFRKFIPKCSKIVIDFDSINSRPSQKLQ | failed
12 | AIATDCEWFDMTWGSSASSGYCSQSDSDEHELELFYTARTSLRKSRKCRDKDEQSEVDWRKQDLSVTEIQQKVKEYNAQVNSNLFMVLNRDGSYTGFIKVQFKLARPVSLPPPRSVSSSSISSSCLGWDGGCQERTSFYLPRDTVKHLHISSSTRAREVIQALLNKFTVVDNPAKYSLYERSQRDNQVYLRKLADDECPLFLRLCAGPNEKVLSLVLKENETGEVNWDAFSFPELQNFLRILQREEEDHVRQIIRRYTLARDKMKEAMKNFSTPG | failed
13 | AIEVEKNNKGINLSFDIEFYPNSFQILQKEYKKIDLIAKLLEKFKKNNILIEGHTEQFGLEEEMHELSEKRARAIGNYLIKMKVKDKDQILFKGWGSQKPKYPKSSPLKAKNRRVEITILN | not failed
14 | AIKHVKGNGKRTLYIFSDPDCPYCQRLEKELTAVDNVTIYLFLFPLTTLHPNAETIATQIWCSKNQYQAWQDYLLNHKAPTASQKCSTPIQKNLALGQKLNINGTPTMYLKNGERIAGAMQAGQLNTLLDQAQ | failed
15 | ALAERRLFAELVDHSVVNVHVVDKDLRWLAVNRQARHDFHLLYGRTPEIGDYLPGLFEDGTAGQTPILPMWQRALAGEQFIEIGTFGKPPAVRHYELRFNALRDPKGEVQGAFLFAYDISERVQEQERLAKAEAALRQAQKMEAVGQLSGGIAHDFNNLLGGI | failed
16 | ALPELRLEQFIITGASKRGWSAWLTAMADDRVIAIVPSVIDVADTSSMLEGLRKRYGGSWPLALWSYQAAEVLQQLGSPAFARLMALMDPMQYLDEPGARLKIPKYLVSASGDDFFAPDHATDYLQRLPGQTSLRVLPNSDHGGVRAHVVTTLVPMVQRIQASL | failed
17 | ALSDGVHKIEFEHGTTSGKRVVYVDGKEEIRKEWMFKLVGKETFYVGAAKTKATINIDAISGFAYEYTLEINGKSLKKYMEDRSKTTNTWVLHMDGENFRIVLEKDAMDVWCNGKKLETAGEFVDDGTETHFSIGNHDCYIKAVSSGKRKEGIIHTLIVDNREIPEIAS | failed
18 | ANLYWFRADWFERPDLKKKFKDKYGYELGVPVNWSAYEDIAKFFSEDVKEIDGKKVFGHMDYGKKDPSLGWRFTDAWFSMAGSGDKGLPNGLPVDEWGIRVEDCHPVGSSITRGGDTNGPAAVFATQKYIDWLKAYAPPEAAGMTFSESGPVPSQGNVAQQIFWYTAFTADMTKPGLPVMNADGTPKWRMAPSPKGPYWKEGMKLGYQDVGSWTFLKSSDEKKRLAAWLYAQFVTSKSVSLKKTIVGLTPIRESDINS | failed
19 | APIKGVTFGEDTVWEVQGYKNVRITFELDERVDKVLNEKCSVYTVESGTEVTEFACVVAEAVVKTLQPVSDLLTNMGIDLDEWSVATFYLFDDAGEENFSSRMYCSFYPPDE | not failed
20 | APIPERAQVSVPGPVRVVDFDTPQSVALFVQPGIDRDDPDFFTAYILNHIIGGGGFESRLMQEVREKRGLTYGVYSYLLPKDLASIYMGSVASANDKIAEAVNVIRDVWRDVAANGVTAKELEDAKTYLTGAYPLRFDGNGRIANILAGMQIQGLPIDYIATRNDQVNAVTLEEINTFAAGFLDPEGLSFTVVGKPVGL | failed
21 | AQNEKNMYSYKKIGNKYIVSINNHTEIVKALNAFCKEKGILSGSINGIGAIGELTLRFFNPKTKAYDDKTFREQMEISNLTGNISSMNEQVYLHLHITVGRSDYSALAGHLLSAIQNGAGEFVVEDYSERISRTYNPDLGLNIYDFER | not failed
22 | AQNFSDYFTNKTLRIDYLFTGNADKQSICLDELSELPVWAGRRHHLSELPLEGNGQIVMRDVASGKVIYTTSFSSLFQEWLETDEAKEVTKGFENTYLLPYPIKPAEVEITLRNNKREVSANLKHVVKPDDILIHKKGLTHITPHKYLLKSGNEEQCIDVAILAEGYTTSEMETFYKDAAIACEALFSHEPFQSMKNRFNIVAVASPSADSGVSAPKQGAWKHTAFGSHFDTFYSDRYLTTSRVKAINDALAGIPYEHIIILANTEQYGGGGIYNAFTLTTAHHPNFRPVVVHEFGHSFGGLADEYFYDEDVMNGLYPLNIEPWEQNITTRINFASKWEDMLTKTTPVPTPVADKAKYPIGVYEGGGYSAKGIYRPAFDCRMRTNEYPTFCPVCQRAIQRIIEFYTGK | not failed
23 | AQTPAQPQGKGIFQSVSEAIDAAHQAFLRYQQCPLKTRSAIISAMRQELTPLLATLAEESANETGMGNKEDKFLKNKAALDNTPGVEDLTTTALTGDGGMVLFEYSPFGVIGSVAPSTNPTETIINNSISMLAAGNSIYFSPHPGAKKVSLKLISLIEEIAFRCCGIRNLVVTVAEPTFEATQQMMAHPRIAVLAITGGPGIVAMGMKSGKKVIGAGNPPCIVDETADLVKAAEDIINGASFDYNLPCIAE | failed
24 | ARHPDLVSCLTLLQAGDVAAFTVWKAARDPKGVLATPILGHVAMRRMAPKRMPAWYALSVGKADMISELCRCAERSFQHGAQWSLASAYQCYMDPAVELPRPHQPLLSIWGGADFSHPAGNEHSIRRLRPDAVCVTFDDLGHTPELEDPIRVFDAIVRFCEA | failed
25 | ARRPMNAFLLFCKRHRSLVRQEHPRLDNRGATKILADWWAVLDPKEKQKYTDMAKEYKDAFMKANPGYR | not failed
26 | ASATETNTAPSADTQAPKPVNTVTSDVDCSVSAAWGLYKFNQKSNFSAEFEMPESVKAGTGFDALIKIKDISVSNDNLSGYKNAKLTKSSIRINVGKNVKLDGNQPGLSLSNGVLSINDHLKASLEGNSLRISAAPITVRLQALTEGTLTFIPEKTILTNTASVDGYTANTTCTTNADKPFATVKVDPADGLTITAPESASIKQDVQITATVPEKLNEKMDGKVQFFVNHIAAGDPVPVTEDNKASTSIIFDTSGSKTITARFIDAEGYNPAPDGETIIPVVTELDTKKPEDTDSYTGLINGSATSLLKPAKVMPGEKVSVSASLLPNKAPIRVYEIGINAPEDVKYIDGTGKTNYSSKLATTGSVFSSPGSGYYDPEWKNESKKPNESYRGFHSDTSYSVVDTSPQTVSAEFEIPKTLAPGIYMFQMGVYKYSNSLKDLVSIPETAFEIAGPDLPALPERKIKPQPEETPEVSDGSSTAKLVKSP | not failed
27 | ASIYKNKKSHEQLSALKGSFCRNQFPGQSEVEHLTKVTGLSTREVRKWFSDRRYHCRNLKGSR | not failed
28 | ASVVLDFLTSDDFPAVAELGAAIWHKHFIGMISREQIDYMVSSRYTPQRLGRYLDAPDRWFRLLRVDGRPVGYCSYALTGQPGEMKLEQLYLLEEMRGWGLGGRMMDEAEAAARALGCATLMLTVNRHNAGAIAVYQKRGFAVREEVVADIGNGFVMDDYMMEKLLSR | failed
